# Starred links: 1 amine or outer side, 2 acyl side, 3 side chain; linkers in the order of their positions; H or OH if unused. Non-standard residues stand in square brackets, D forms with d. Groups on a side chain read outwards from the residue. Primed or numbered codes have the meaning given here. No end group written: not given here. *: point of attachment. γGlu = O=C(O)[C@H](CCC(=O)[*:2])N[*:1]; Stearoyl = CCCCCCCCCCCCCCCCCC(=O)*; Palmitoyl = CCCCCCCCCCCCCCCC(=O)*; αMeF = C[C@](N)(Cc1ccccc1)C(=O)O; αMeK = C[C@](N)(CCCCN)C(=O)O; αMeS = C[C@](N)(CO)C(=O)O; PEG2′ = not defined here; Aib = CC(C)(N)C(=O)O
# T1: glucose-dependent insulinotropic peptide (gastric inhibitory polypeptide) receptor (human, UniProt P48546 22-466)
# T1 sequence (looked up): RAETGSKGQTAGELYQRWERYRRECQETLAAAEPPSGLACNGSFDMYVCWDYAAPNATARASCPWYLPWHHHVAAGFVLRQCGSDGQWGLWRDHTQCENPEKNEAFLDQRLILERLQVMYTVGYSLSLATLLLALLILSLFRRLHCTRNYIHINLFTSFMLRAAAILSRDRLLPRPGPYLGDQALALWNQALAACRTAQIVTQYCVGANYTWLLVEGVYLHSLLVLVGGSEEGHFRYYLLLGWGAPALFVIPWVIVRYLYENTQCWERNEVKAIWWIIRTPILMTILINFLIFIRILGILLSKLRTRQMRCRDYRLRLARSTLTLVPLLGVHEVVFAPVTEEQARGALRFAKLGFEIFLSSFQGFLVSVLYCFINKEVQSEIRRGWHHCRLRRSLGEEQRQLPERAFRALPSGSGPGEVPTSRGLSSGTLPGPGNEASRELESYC
# Legend:
# Assay in all cases: cell-based or functional assay
# [1] = target: GLP-1 receptor (human, UniProt P43220 24-463)
# [2] = target: glucagon receptor (human, UniProt P47871 26-477)
# Sequence of glucagon receptor (P47871 26-477): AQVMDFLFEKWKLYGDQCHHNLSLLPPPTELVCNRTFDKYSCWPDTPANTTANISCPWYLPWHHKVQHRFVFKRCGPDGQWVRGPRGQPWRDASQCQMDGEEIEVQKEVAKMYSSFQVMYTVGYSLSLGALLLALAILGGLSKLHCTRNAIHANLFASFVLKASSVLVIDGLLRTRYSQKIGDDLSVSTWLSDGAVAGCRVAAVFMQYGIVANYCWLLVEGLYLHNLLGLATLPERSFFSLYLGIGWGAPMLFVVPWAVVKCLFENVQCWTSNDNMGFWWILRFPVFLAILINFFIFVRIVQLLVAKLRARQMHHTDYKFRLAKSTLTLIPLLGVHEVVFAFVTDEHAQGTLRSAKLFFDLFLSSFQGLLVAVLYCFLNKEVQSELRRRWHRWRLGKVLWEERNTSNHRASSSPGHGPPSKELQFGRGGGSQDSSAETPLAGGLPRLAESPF
# [3] = target: T1, glucose-dependent insulinotropic …
binder,measurement,setting,value
H[Aib]EGS[αMeF]TSDV[αMeS]S[αMeF]LEGEAA[αMeK]EFIK([PEG2′-PEG2′-γGlu-Stearoyl])WVVEGG-NH2 [SEQ ID NO 68],"Primary assay EC50 (cAMP), Mean pM GLP-1R",[1],18.8 pM
same,"Primary assay EC50 (cAMP), n1",[1],0.0221 nM
same,"Primary assay EC50 (cAMP), n2",[1],0.0155 nM
same,"Primary assay EC50 (cAMP), n1",[2],25 nM
same,"Primary assay EC50 (cAMP), n2",[2],25 nM
same,"Primary assay EC50 (cAMP), n1",[3],25 nM
same,"Primary assay EC50 (cAMP), n2",[3],25 nM
H[Aib]EGS[αMeF]TSDV[αMeS]S[αMeF]LEGEAA[Aib]EFIK([PEG2′-PEG2′-γGlu-Stearoyl])WVVEGG-NH2 [SEQ ID NO 67],"Primary assay EC50 (cAMP), Mean pM GLP-1R",[1],60.1 pM
same,"Primary assay EC50 (cAMP), n1",[1],0.0721 nM
same,"Primary assay EC50 (cAMP), n2",[1],0.048 nM
same,"Primary assay EC50 (cAMP), n1",[2],25.4 nM
same,"Primary assay EC50 (cAMP), n2",[2],25.4 nM
same,"Primary assay EC50 (cAMP), n1",[3],25.4 nM
same,"Primary assay EC50 (cAMP), n2",[3],25.4 nM
H[Aib]EGS[αMeF]TSDV[αMeS]S[αMeF]LEGEAAKEFIK([PEG2′-PEG2′-γGlu-Stearoyl])WVVEGG-NH2 [SEQ ID NO 65],"Primary assay EC50 (cAMP), Mean pM GLP-1R",[1],16.9 pM
same,"Primary assay EC50 (cAMP), n1",[1],0.0197 nM
same,"Primary assay EC50 (cAMP), n2",[1],0.014 nM
same,"Primary assay EC50 (cAMP), n1",[2],25.1 nM
same,"Primary assay EC50 (cAMP), n2",[2],25.1 nM
same,"Primary assay EC50 (cAMP), n1",[3],25.1 nM
same,"Primary assay EC50 (cAMP), n2",[3],25.1 nM
H[Aib]EGS[αMeF]TSDV[αMeS]S[αMeF]LEGEAA[αMeK]E[αMeF]IA[αMeF]VVK([γGlu-Palmitoyl])GG-NH2 (N-terminus assumed; SMILES CCCCCCCCCCCCCCCC(=O)N[C@@H](CCC(=O)NCCCC[C@H](NC(=O)[C@@H](NC(=O)[C@@H](NC(=O)[C@](C)(Cc1ccccc1)NC(=O)[C@H](C)NC(=O)[C@@H](NC(=O)[C@](C)(Cc1ccccc1)NC(=O)[C@H](CCC(=O)O)NC(=O)[C@](C)(CCCCN)NC(=O)[C@H](C)NC(=O)[C@H](C)NC(=O)[C@H](CCC(=O)O)NC(=O)CNC(=O)[C@H](CCC(=O)O)NC(=O)[C@H](CC(C)C)NC(=O)[C@](C)(Cc1ccccc1)NC(=O)[C@H](CO)NC(=O)[C@](C)(CO)NC(=O)[C@@H](NC(=O)[C@H](CC(=O)O)NC(=O)[C@H](CO)NC(=O)[C@@H](NC(=O)[C@](C)(Cc1ccccc1)NC(=O)[C@H](CO)NC(=O)CNC(=O)[C@H](CCC(=O)O)NC(=O)C(C)(C)NC(=O)[C@@H](N)Cc1c[nH]cn1)[C@@H](C)O)C(C)C)[C@@H](C)CC)C(C)C)C(C)C)C(=O)NCC(=O)NCC(N)=O)C(=O)O) [SEQ ID NO 72],"Primary assay EC50 (cAMP), Mean pM GLP-1R",[1],49 pM
same,"Primary assay EC50 (cAMP), n1",[1],0.046 nM
same,"Primary assay EC50 (cAMP), n2",[1],0.052 nM
same,"Primary assay EC50 (cAMP), n1",[2],28 nM
same,"Primary assay EC50 (cAMP), n2",[2],28 nM
same,"Primary assay EC50 (cAMP), n1",[3],28 nM
same,"Primary assay EC50 (cAMP), n2",[3],28 nM
H[Aib]EGS[αMeF]SSEVSS[αMeF]LEGEAA[αMeK]E[αMeF]IA[αMeF]VV[αMeK]GG-NH2 (N-terminus assumed; SMILES CC[C@H](C)[C@H](NC(=O)[C@](C)(Cc1ccccc1)NC(=O)[C@H](CCC(=O)O)NC(=O)[C@](C)(CCCCN)NC(=O)[C@H](C)NC(=O)[C@H](C)NC(=O)[C@H](CCC(=O)O)NC(=O)CNC(=O)[C@H](CCC(=O)O)NC(=O)[C@H](CC(C)C)NC(=O)[C@](C)(Cc1ccccc1)NC(=O)[C@H](CO)NC(=O)[C@H](CO)NC(=O)[C@@H](NC(=O)[C@H](CCC(=O)O)NC(=O)[C@H](CO)NC(=O)[C@H](CO)NC(=O)[C@](C)(Cc1ccccc1)NC(=O)[C@H](CO)NC(=O)CNC(=O)[C@H](CCC(=O)O)NC(=O)C(C)(C)NC(=O)[C@@H](N)Cc1c[nH]cn1)C(C)C)C(=O)N[C@@H](C)C(=O)N[C@@](C)(Cc1ccccc1)C(=O)N[C@H](C(=O)N[C@H](C(=O)N[C@@](C)(CCCCN)C(=O)NCC(=O)NCC(N)=O)C(C)C)C(C)C) [SEQ ID NO 9],"Primary assay EC50 (cAMP), Mean pM GLP-1R",[1],1200 pM
same,"Primary assay EC50 (cAMP), n1",[1],1.2 nM
same,"Primary assay EC50 (cAMP), n2",[1],1.2 nM
same,"Primary assay EC50 (cAMP), n1",[2],29 nM
same,"Primary assay EC50 (cAMP), n2",[2],29 nM
same,"Primary assay EC50 (cAMP), n1",[3],29 nM
same,"Primary assay EC50 (cAMP), n2",[3],29 nM
H[Aib]EGS[αMeF]TSDV[αMeS]S[αMeF]LEGEAA[αMeK]E[αMeF]IA[αMeF]VV[αMeK]GK([γGlu-Palmitoyl])-NH2 (N-terminus assumed; SMILES CCCCCCCCCCCCCCCC(=O)N[C@@H](CCC(=O)NCCCC[C@H](NC(=O)CNC(=O)[C@](C)(CCCCN)NC(=O)[C@@H](NC(=O)[C@@H](NC(=O)[C@](C)(Cc1ccccc1)NC(=O)[C@H](C)NC(=O)[C@@H](NC(=O)[C@](C)(Cc1ccccc1)NC(=O)[C@H](CCC(=O)O)NC(=O)[C@](C)(CCCCN)NC(=O)[C@H](C)NC(=O)[C@H](C)NC(=O)[C@H](CCC(=O)O)NC(=O)CNC(=O)[C@H](CCC(=O)O)NC(=O)[C@H](CC(C)C)NC(=O)[C@](C)(Cc1ccccc1)NC(=O)[C@H](CO)NC(=O)[C@](C)(CO)NC(=O)[C@@H](NC(=O)[C@H](CC(=O)O)NC(=O)[C@H](CO)NC(=O)[C@@H](NC(=O)[C@](C)(Cc1ccccc1)NC(=O)[C@H](CO)NC(=O)CNC(=O)[C@H](CCC(=O)O)NC(=O)C(C)(C)NC(=O)[C@@H](N)Cc1c[nH]cn1)[C@@H](C)O)C(C)C)[C@@H](C)CC)C(C)C)C(C)C)C(N)=O)C(=O)O) [SEQ ID NO 70],"Primary assay EC50 (cAMP), Mean pM GLP-1R",[1],83 pM
same,"Primary assay EC50 (cAMP), n1",[1],0.074 nM
same,"Primary assay EC50 (cAMP), n2",[1],0.092 nM
same,"Primary assay EC50 (cAMP), n1",[2],27 nM
same,"Primary assay EC50 (cAMP), n2",[2],27 nM
same,"Primary assay EC50 (cAMP), n1",[3],27 nM
same,"Primary assay EC50 (cAMP), n2",[3],27 nM
H[Aib]EGS[αMeF]TSDV[αMeS]S[αMeF]LEGEAA[αMeK]E[αMeF]IA[αMeF]VV[αMeK]K([γGlu-Palmitoyl])G-NH2 (N-terminus assumed; SMILES CCCCCCCCCCCCCCCC(=O)N[C@@H](CCC(=O)NCCCC[C@H](NC(=O)[C@](C)(CCCCN)NC(=O)[C@@H](NC(=O)[C@@H](NC(=O)[C@](C)(Cc1ccccc1)NC(=O)[C@H](C)NC(=O)[C@@H](NC(=O)[C@](C)(Cc1ccccc1)NC(=O)[C@H](CCC(=O)O)NC(=O)[C@](C)(CCCCN)NC(=O)[C@H](C)NC(=O)[C@H](C)NC(=O)[C@H](CCC(=O)O)NC(=O)CNC(=O)[C@H](CCC(=O)O)NC(=O)[C@H](CC(C)C)NC(=O)[C@](C)(Cc1ccccc1)NC(=O)[C@H](CO)NC(=O)[C@](C)(CO)NC(=O)[C@@H](NC(=O)[C@H](CC(=O)O)NC(=O)[C@H](CO)NC(=O)[C@@H](NC(=O)[C@](C)(Cc1ccccc1)NC(=O)[C@H](CO)NC(=O)CNC(=O)[C@H](CCC(=O)O)NC(=O)C(C)(C)NC(=O)[C@@H](N)Cc1c[nH]cn1)[C@@H](C)O)C(C)C)[C@@H](C)CC)C(C)C)C(C)C)C(=O)NCC(N)=O)C(=O)O) [SEQ ID NO 71],"Primary assay EC50 (cAMP), Mean pM GLP-1R",[1],7.1 pM
same,"Primary assay EC50 (cAMP), n1",[1],0.0062 nM
same,"Primary assay EC50 (cAMP), n2",[1],0.008 nM
same,"Primary assay EC50 (cAMP), n1",[2],27 nM
same,"Primary assay EC50 (cAMP), n2",[2],27 nM
same,"Primary assay EC50 (cAMP), n1",[3],27 nM
same,"Primary assay EC50 (cAMP), n2",[3],27 nM
H[Aib]EGS[αMeF]TSDV[αMeS]S[αMeF]LEGEAAEEFIK([PEG2′-PEG2′-γGlu-Stearoyl])WVVEGG-NH2 [SEQ ID NO 66],"Primary assay EC50 (cAMP), Mean pM GLP-1R",[1],150 pM
same,"Primary assay EC50 (cAMP), n1",[1],0.203 nM
same,"Primary assay EC50 (cAMP), n2",[1],0.0979 nM
same,"Primary assay EC50 (cAMP), n1",[2],25.1 nM
same,"Primary assay EC50 (cAMP), n2",[2],25.1 nM
same,"Primary assay EC50 (cAMP), n1",[3],25.1 nM
same,"Primary assay EC50 (cAMP), n2",[3],25.1 nM
H[Aib]EGS[αMeF]TSDVSK([PEG2′-PEG2′-PEG2′-Stearoyl])YLEGEAA[αMeK]E[αMeF]IA[αMeF]VVEGG-NH2 [SEQ ID NO 64],"Primary assay EC50 (cAMP), Mean pM GLP-1R",[1],1.3 pM
same,"Primary assay EC50 (cAMP), n1",[1],0.0014 nM
same,"Primary assay EC50 (cAMP), n2",[1],0.0012 nM
same,"Primary assay EC50 (cAMP), n1",[2],25 nM
same,"Primary assay EC50 (cAMP), n2",[2],25 nM
same,"Primary assay EC50 (cAMP), n1",[3],25 nM
same,"Primary assay EC50 (cAMP), n2",[3],25 nM
H[Aib]EGS[αMeF]TSDV[αMeS]S[αMeF]LEGEAAAEFIK([PEG2′-PEG2′-γGlu-Stearoyl])WVVEGG-NH2 [SEQ ID NO 69],"Primary assay EC50 (cAMP), Mean pM GLP-1R",[1],53 pM
same,"Primary assay EC50 (cAMP), n1",[1],0.0661 nM
same,"Primary assay EC50 (cAMP), n2",[1],0.0399 nM
same,"Primary assay EC50 (cAMP), n1",[2],25.5 nM
same,"Primary assay EC50 (cAMP), n2",[2],25.5 nM
same,"Primary assay EC50 (cAMP), n1",[3],25.5 nM
same,"Primary assay EC50 (cAMP), n2",[3],25.5 nM

# From patent publication US20200079833A1 (AstraZeneca / MedImmune, published 2020)
